Measured values taken from PMC6439349.

B1: TioT (natural protein)
chain: MSVNPFDDEDGEFYVLVNDEEQHSLWPTFGDVPDGWRIVFGPAGRAESVAYVEENWTDMRPKSLREAMSAA
B2: MbtH (natural protein)
chain: MSTNPFDDDNGAFFVLVNDEDQHSLWPVFADIPAGWRVVHGEASRAACLDYVEKNWTDLRPKSLRDAMAED
B3: CouY (natural protein)
chain: MATNPFDDENGVYLLLVNDEGQHSLWPSFAALPKGWTVILDEASRQECLDYVNEHWTDMRPLSLQPAMGDE

Experiments:
TioK [1] = assay: AUC
[2] = target: TioK-Ecm8 complex (not stated | Streptomyces lasaliensis); assay: AUC
[3] = target: TioK-KtzJ complex (not stated | Kutzneria sp. 744); assay: AUC
[4] = target: TioK-MbtH complex (not stated | Mycobacterium tuberculosis H37Rv) (UniProt P9WIP4); assay: […]
[5] = target: TioK-MyabAaA complex (not stated | Mycobacterium abscessus); assay: AUC
[6] = target: TioK-MyavAcA complex (not stated | Mycobacterium avium); assay: AUC
[7] = target: TioK-MymaAcA complex (not stated | Mycobacterium marinum); assay: AUC
[8] = target: TioK-MypaAaA complex (not stated | Mycobacterium paratuberculosis); assay: AUC
TioK-TioT complex = TioK-TioT complex (UniProt Q333U6); assay: AUC
TioK [9] = assay: […]

Molecule	approximate mole fraction of TioK-MLP complex (TioK [1])	stoichiometry N (TioK [1])	further results
Ecm8 (natural protein)	0.76	1 MLP per TioK	–
KtzJ (natural protein)	0.92	1 MLP per TioK	–
PA2412 (from UniProt Q9I169 1-72) (natural protein)	0.87	1 MLP per TioK	–
TioK-Ecm8 complex	–	–	stoichiometry N (multiple of MW(1:1)) [2]: 1.93
TioK-KtzJ complex	–	–	stoichiometry N (multiple of MW(1:1)) [3]: 1.92
TioK-MbtH complex (from UniProt P9WIP4 1-71)	–	–	stoichiometry N (multiple of MW(1:1)) [4]: 2.06
TioK-MyabAaA complex	–	–	stoichiometry N (multiple of MW(1:1)) [5]: 1.96
TioK-MyavAcA complex	–	–	stoichiometry N (multiple of MW(1:1)) [6]: 1.96
TioK-MymaAcA complex	–	–	stoichiometry N (multiple of MW(1:1)) [7]: 1.94
TioK-MypaAaA complex	–	–	stoichiometry N (multiple of MW(1:1)) [8]: 2.05
TioK-TioT complex (from UniProt Q333U6 1-71)	–	–	stoichiometry N (multiple of MW(1:1)) (TioK-TioT complex): 1.98
B1	0.88	1 MLP per TioK	–
B2	–	–	approximate mole fraction of TioK-MLP complex (TioK [9]): 0.82; stoichiometry N (TioK [9]): 1 MLP per TioK
B3	0.84	1 MLP per TioK	–
